Experimental data from PMC8265671.

Target: FLAG-tagged TgMLC1 C(8,11)S (Toxoplasma gondii)
Test: co-IP; anti-FLAG M2 affinity resin, Triton X-100 extract of parasites in FLAG lysis buffer (10 mM imidazole pH 7.4, 300 mM NaCl, 1 mM EGTA, 5 mM MgCl2, 1% TX-100, 2 mM DTT, 2 mM ATP), overnight at 4°C, eluted with FLAG peptide, quantitative Western blotting

Substance	fold increase in the amount recovered, against WT TgMLC1 [fold]
TgELC1 (Toxoplasma gondii essential light chain 1) (natural protein)	2 to 3
TgMyoA (Toxoplasma gondii class XIVa myosin heavy chain) (from UniProt O00934 1-831)	2 to 3
